Consider five molecules from PMC7452315, “Alternative Splicing of a Receptor Intracellular Domain Yields Different Ectodomain Conformations, Enabling Isoform-Selective Functional Ligands” (iScience, 2020).

For assay [1], the target named is truncated TrkC.T1 receptor. The experiment in a line: co-IP; HEK293 lysates expressing TrkC.T1, TrkC-FL or TrkC-Δ-ICD; immunoprecipitated with a pan-TrkC antibody; reducing and non-reducing SDS-PAGE; blotted with two anti-PDI mAbs or anti-pan-TrkC.
Assay [2] deals with TrkC-FL D5 (Homo sapiens) (UniProt Q16288). As to conditions: cited from earlier work.
A further assay concerns the target TrkC ECD (Homo sapiens) (UniProt Q16288). As to conditions: cited from earlier work.
Assay [3] has as its target T1, full-length TrkC (TrkC-FL) (UniProt Q16288 32-839). The experiment in a line: cell-based or functional assay.
Assay [4] has as its target T1, full-length TrkC (TrkC-FL). The assay can be described thus: cell-based or functional assay. This is another data set of the same source.
Assay [5] addresses truncated TrkC.T1 receptor. The experiment in a line: flow cytometry on cells; quantitative flow cytometry on live, non-permeabilised cells stably transfected with TrkC-FL or TrkC.T1; ligand at saturating concentration; read-out is fold-increase in mean fluorescence intensity over controls; NT-3-biotin detected with avidin-fluorescein, PTP-sigma with anti-human secondary. (In general: Flow cytometry measures light scatter and fluorescence of single cells or particles in a stream.)

Assay [6] has as its target T1, full-length TrkC (TrkC-FL). The assay is described as above. The note with it: one partner purified.

T1 sequence (Q16288 32-839): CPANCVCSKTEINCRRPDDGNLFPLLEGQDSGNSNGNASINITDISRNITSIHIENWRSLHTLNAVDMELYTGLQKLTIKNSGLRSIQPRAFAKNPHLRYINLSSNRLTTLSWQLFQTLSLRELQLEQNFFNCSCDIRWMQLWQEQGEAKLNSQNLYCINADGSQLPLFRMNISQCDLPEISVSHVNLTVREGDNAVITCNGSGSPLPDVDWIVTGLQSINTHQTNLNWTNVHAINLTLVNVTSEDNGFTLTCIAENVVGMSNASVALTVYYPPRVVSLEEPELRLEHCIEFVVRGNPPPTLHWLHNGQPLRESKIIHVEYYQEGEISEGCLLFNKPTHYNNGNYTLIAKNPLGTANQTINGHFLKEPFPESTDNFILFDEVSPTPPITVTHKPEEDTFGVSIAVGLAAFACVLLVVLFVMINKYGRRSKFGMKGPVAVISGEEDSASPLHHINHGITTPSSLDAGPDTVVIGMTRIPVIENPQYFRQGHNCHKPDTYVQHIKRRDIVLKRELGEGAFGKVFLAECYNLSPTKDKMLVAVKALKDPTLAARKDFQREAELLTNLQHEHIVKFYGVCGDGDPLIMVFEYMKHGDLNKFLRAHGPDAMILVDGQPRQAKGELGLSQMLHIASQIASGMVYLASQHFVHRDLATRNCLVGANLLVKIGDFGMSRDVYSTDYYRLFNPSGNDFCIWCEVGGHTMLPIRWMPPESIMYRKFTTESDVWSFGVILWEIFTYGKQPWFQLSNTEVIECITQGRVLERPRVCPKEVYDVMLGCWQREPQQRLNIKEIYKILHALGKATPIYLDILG
Sequence of truncated TrkC.T1 receptor (Q16288 32-839): as above
Sequence of TrkC-FL D5 (Homo sapiens) (Q16288 300-413): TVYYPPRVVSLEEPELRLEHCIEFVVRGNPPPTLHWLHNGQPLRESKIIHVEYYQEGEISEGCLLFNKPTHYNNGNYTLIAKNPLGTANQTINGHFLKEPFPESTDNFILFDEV
Sequence of TrkC ECD (Homo sapiens) (Q16288 32-429): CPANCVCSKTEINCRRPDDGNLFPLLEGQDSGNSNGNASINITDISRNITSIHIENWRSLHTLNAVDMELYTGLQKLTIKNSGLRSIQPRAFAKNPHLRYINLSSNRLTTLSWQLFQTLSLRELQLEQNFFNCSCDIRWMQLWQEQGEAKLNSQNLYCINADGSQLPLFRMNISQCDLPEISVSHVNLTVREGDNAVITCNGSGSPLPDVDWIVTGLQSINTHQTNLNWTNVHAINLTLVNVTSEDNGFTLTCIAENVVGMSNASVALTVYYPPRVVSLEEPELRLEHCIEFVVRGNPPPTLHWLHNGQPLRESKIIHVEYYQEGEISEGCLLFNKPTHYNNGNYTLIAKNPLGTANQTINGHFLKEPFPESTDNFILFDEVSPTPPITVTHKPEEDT

On to “Protein Disulfide Isomerase (PDI) (from UniProt P07237 18-508) (enzyme)”, for which, in assay [1], the fold associated PDI (PDI/TrkC ratio) against TrkC-FL and TrkC-Δ-ICD lay in the range of 4 to 6 fold.

With NT-3 (from UniProt P20783), in assay [2], the equilibrium dissociation constant (Kd) is 0.05 nM.

Consider PTP-sigma (from UniProt Q13332), for which the Kd in the assay with TrkC ECD (Homo sapiens) is 9.3 nM.

B1: ectodomain of PTP-sigma (domain or fragment, UniProt Q13332 30-1282, looked up)
chain: EEPPRFIKEPKDQIGVSGGVASFVCQATGDPKPRVTWNKKGKKVNSQRFETIEFDESAGAVLRIQPLRTPRDENVYECVAQNSVGEITVHAKLTVLREDQLPSGFPNIDMGPQLKVVERTRTATMLCAASGNPDPEITWFKDFLPVDPSASNGRIKQLRSETFESTPIRGALQIESSEETDQGKYECVATNSAGVRYSSPANLYVRELREVRRVAPRFSILPMSHEIMPGGNVNITCVAVGSPMPYVKWMQGAEDLTPEDDMPVGRNVLELTDVKDSANYTCVAMSSLGVIEAVAQITVKSLPKAPGTPMVTENTATSITITWDSGNPDPVSYYVIEYKSKSQDGPYQIKEDITTTRYSIGGLSPNSEYEIWVSAVNSIGQGPPSESVVTRTGEQAPASAPRNVQARMLSATTMIVQWEEPVEPNGLIRGYRVYYTMEPEHPVGNWQKHNVDDSLLTTVGSLLEDETYTVRVLAFTSVGDGPLSDPIQVKTQQGVPGQPMNLRAEARSETSITLSWSPPRQESIIKYELLFREGDHGREVGRTFDPTTSYVVEDLKPNTEYAFRLAARSPQGLGAFTPVVRQRTLQSKPSAPPQDVKCVSVRSTAILVSWRPPPPETHNGALVGYSVRYRPLGSEDPEPKEVNGIPPTTTQILLEALEKWTQYRITTVAHTEVGPGPESSPVVVRTDEDVPSAPPRKVEAEALNATAIRVLWRSPAPGRQHGQIRGYQVHYVRMEGAEARGPPRIKDVMLADAQWETDDTAEYEMVITNLQPETAYSITVAAYTMKGDGARSKPKVVVTKGAVLGRPTLSVQQTPEGSLLARWEPPAGTAEDQVLGYRLQFGREDSTPLATLEFPPSEDRYTASGVHKGATYVFRLAARSRGGLGEEAAEVLSIPEDTPRGHPQILEAAGNASAGTVLLRWLPPVPAERNGAIVKYTVAVREAGALGPARETELPAAAEPGAENALTLQGLKPDTAYDLQVRAHTRRGPGPFSPPVRYRTFLRDQVSPKNFKVKMIMKTSVLLSWEFPDNYNSPTPYKIQYNGLTLDVDGRTTKKLITHLKPHTFYNFVLTNRGSSLGGLQQTVTAWTAFNLLNGKPSVAPKPDADGFIMVYLPDGQSPVPVQSYFIVMVPLRKSRGGQFLTPLGSPEDMDLEELIQDISRLQRRSLRHSRQLEVPRPYIAARFSVLPPTFHPGDQKQYGGFDNRGLEPGHRYVLFVLAVLQKSEPTFAASPFSDPFQLDNPDPQPIVDGEEG
notes: receptor-type tyrosine-protein phosphatase sigma, ectodomain; Probably a human Fc fusion, since it was detected with an anti-human secondary; also called PTP-sigma ectodomain; not shown: Fc (human)
Turning to B1, the “cell survival (MTT) of TrkC-FL-expressing cells in serum-free media, efficacy relative to 2 nM NT-3 (100%)” value in assay [3] was 105 % of 2 nM NT-3. The “EC50 of bioactivity from dose-response curves (cell survival via TrkC-FL)” value in assay [4] was found to be 8 nM. Moreover, the fold-increase in ligand binding over controls (mean fluorescence intensity) in assay [5] turned out to be 3.7 fold; in assay [6], 5 fold.

B2: NT-3 (ligand, UniProt P20783 139-257, looked up)
chain: YAEHKSHRGEYSVCDSESLWVTDKSSAIDIRGHQVTVLGEIKTGNSPVKQYFYETRCKEARPVKNGCRGIDDKHWNSQCKTSQTYVRALTSENNKLVGWRWIRIDTSCVCALSRKIGRT
modifications: biotin (NT-3-biotin in the flow cytometry binding assay)
notes: neurotrophin-3, soluble growth factor; also called NT-3-biotin
In the case of B2, the “EC50 of bioactivity from dose-response curves (cell survival via TrkC-FL)” value in assay [4] is 0.2 nM. Moreover, the fold-increase in ligand binding over controls (mean fluorescence intensity) in assay [5] is 7 fold; in assay [6], 9 fold.

In general, Kd refers to a measure of binding affinity in units of concentration.
